Stoichiometry N data for one substance are collected here from paper doi:10.1101/2023.05.26.542392.

This assay concerns the target R203M mutant of full-length SARS-CoV-2 nucleocapsid (R203M-FLN) (SARS-CoV-2). Nature of the assay: AUC.

A word on the stoichiometry N: it is a count of units in the complex or per binding partner. Regarding “R203M mutant of full-length SARS-CoV-2 nucleocapsid (R203M-FLN) (natural protein)”, the stoichiometry N was 2.
